Assay results published in US20160185837A1, “GIP AND GLP-1 RECEPTOR DUAL-AGONISTS FOR THE TREATMENT OF DIABETES” (Medimmune Limited, priority 2013, published 2016).
Ends that are not written are not given here.

B1: IP329 (Fc fusion)
chain: YSEGTFTSDYSKLLERQAIDEFIAELLKGGGGGGGSGGGGSGGGGSGGGGSGGGGSGGGGSA

Columns and labels:
Test in all cases: cell-based or functional assay
[1] = target: cynomolgus monkey glucagon receptor (cynomolgus monkey)
[2] = target: cynomolgus monkey GLP-1 receptor (cynomolgus monkey) (UniProt F8V479)
cynomolgus monkey GLP-1 receptor (cynomolgus monkey), sequence (F8V479 entry or part of it): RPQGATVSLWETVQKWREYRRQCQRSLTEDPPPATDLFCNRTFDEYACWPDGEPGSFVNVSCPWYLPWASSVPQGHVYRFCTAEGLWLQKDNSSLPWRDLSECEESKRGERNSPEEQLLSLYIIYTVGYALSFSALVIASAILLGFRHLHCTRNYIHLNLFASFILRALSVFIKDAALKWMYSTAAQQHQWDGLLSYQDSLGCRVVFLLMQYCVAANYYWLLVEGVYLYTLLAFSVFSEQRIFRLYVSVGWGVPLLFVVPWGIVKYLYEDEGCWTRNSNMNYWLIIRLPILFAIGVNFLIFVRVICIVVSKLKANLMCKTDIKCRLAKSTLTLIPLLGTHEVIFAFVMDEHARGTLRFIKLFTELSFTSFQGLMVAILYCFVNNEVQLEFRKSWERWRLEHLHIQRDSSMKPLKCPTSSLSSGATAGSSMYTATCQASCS

[3] = target: human GLP-1 receptor (human) (UniProt P43220)
human GLP-1 receptor (human), sequence (P43220 24-463): as the sequence (F8V479 entry or part of it) above, with N112S, S120F, G202S, V205L, F237L, R241W, V249I counted along it

rat GLP-1 receptor (rat) = rat GLP-1 receptor (rat) (UniProt P32301)
rat GLP-1 receptor (rat), sequence (P32301 22-463): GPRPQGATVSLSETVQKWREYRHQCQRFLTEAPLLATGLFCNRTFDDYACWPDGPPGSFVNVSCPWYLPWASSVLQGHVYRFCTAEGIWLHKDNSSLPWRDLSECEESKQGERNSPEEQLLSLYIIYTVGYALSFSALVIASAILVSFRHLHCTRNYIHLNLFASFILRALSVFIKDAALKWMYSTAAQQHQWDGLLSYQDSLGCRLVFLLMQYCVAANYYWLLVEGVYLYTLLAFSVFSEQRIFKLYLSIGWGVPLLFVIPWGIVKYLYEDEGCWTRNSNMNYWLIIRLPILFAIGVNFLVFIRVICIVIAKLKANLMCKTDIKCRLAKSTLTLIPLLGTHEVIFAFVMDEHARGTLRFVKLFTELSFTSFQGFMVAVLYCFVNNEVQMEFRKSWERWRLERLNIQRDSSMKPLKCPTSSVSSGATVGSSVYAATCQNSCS

[4] = target: human glucagon receptor (human) (UniProt P47871)
human glucagon receptor (human), sequence (P47871 26-477): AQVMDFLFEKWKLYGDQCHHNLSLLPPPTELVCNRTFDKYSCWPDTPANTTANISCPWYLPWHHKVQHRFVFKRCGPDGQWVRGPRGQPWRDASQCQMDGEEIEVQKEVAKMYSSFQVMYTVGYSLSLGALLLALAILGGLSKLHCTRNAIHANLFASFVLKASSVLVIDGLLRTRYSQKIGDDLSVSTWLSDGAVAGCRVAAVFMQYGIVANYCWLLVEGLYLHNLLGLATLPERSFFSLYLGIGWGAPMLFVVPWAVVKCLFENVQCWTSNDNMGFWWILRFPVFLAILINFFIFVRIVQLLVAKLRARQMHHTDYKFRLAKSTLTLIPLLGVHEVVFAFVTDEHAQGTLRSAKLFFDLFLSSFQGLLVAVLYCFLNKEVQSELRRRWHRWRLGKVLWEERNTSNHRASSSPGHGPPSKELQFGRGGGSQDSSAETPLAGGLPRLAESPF

rat GIP receptor (rat) = target: T1, rat GIP receptor (rat) (UniProt P43219)
T1 sequence (looked up): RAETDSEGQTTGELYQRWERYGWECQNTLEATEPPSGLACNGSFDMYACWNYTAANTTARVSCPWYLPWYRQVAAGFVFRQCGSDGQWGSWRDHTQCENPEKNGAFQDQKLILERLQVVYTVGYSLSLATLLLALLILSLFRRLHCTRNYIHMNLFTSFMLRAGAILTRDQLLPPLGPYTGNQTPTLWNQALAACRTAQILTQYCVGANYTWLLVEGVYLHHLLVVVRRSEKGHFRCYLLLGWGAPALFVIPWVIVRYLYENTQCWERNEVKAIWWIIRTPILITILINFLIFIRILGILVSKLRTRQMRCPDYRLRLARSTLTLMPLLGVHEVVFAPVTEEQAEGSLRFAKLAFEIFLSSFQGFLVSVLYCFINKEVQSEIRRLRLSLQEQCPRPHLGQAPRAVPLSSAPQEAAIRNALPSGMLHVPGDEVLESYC

[5] = target: T2, human GIP receptor (human) (UniProt P48546)
T2 sequence (looked up): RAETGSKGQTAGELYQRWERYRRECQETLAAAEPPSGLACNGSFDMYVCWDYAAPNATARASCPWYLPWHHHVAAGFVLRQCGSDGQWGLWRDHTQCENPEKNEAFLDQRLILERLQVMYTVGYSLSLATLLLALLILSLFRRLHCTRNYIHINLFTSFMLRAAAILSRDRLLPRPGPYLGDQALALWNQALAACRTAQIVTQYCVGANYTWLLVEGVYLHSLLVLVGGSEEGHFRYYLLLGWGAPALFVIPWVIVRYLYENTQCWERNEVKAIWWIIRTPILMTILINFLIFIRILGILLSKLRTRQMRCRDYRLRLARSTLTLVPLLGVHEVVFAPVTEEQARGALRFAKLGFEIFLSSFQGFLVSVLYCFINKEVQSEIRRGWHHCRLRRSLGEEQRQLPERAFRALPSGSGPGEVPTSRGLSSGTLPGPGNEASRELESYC

[6] = target: T3, mouse GIP receptor (mouse) (UniProt Q0P543)
T3 sequence (looked up): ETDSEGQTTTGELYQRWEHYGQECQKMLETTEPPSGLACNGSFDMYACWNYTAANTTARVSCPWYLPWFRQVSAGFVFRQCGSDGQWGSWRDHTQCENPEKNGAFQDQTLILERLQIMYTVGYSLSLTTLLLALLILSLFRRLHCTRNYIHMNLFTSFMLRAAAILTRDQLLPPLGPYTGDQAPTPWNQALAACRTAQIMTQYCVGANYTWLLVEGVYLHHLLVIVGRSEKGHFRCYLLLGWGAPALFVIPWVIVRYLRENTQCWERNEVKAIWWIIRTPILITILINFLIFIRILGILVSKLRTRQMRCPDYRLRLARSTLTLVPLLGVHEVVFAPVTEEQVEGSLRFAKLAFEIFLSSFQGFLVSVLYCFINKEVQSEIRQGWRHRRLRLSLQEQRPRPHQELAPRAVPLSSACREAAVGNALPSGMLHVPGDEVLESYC

[7] = target: mouse GLP-1 receptor (mouse) (UniProt O35659)
mouse GLP-1 receptor (mouse), sequence (O35659 22-463): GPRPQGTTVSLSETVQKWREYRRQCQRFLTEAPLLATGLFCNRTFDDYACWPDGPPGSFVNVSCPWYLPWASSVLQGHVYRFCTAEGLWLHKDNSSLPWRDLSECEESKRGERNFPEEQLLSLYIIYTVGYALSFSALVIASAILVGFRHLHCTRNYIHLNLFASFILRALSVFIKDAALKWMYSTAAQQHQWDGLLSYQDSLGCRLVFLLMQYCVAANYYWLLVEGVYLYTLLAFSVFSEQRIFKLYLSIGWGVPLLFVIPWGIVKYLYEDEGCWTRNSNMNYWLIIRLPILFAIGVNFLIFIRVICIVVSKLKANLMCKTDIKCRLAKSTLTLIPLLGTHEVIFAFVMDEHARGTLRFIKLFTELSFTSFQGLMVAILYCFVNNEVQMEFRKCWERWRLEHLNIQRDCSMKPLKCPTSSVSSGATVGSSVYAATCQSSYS

Binder	cAMP EC50, 4.2% cyno serum albumin [1]	cAMP EC50, 4.2% cyno serum albumin [2]	cAMP EC50 [3]	cAMP EC50 (rat GLP-1 receptor (rat))	cAMP EC50 [4]	cAMP EC50 (rat GIP receptor (rat))	cAMP EC50 [5]	cAMP EC50 [6]	cAMP EC50 [7]
HGEGTFTSDVSSYLEEQAAKEFIAWLVKGR (Fc fusion, not shown: a dimerising Fc or GST, also: fused to linker, hinge and IgG4 Fc (not given here)) [GLP-1 analogue-Fc (gamma4) fusion control]	> 1000 nM	0.011 nM	–	–	–	–	–	–	–
B1	–	–	1.4 nM	0.18 nM	> 1430 nM	0.06 nM	0.011 nM	2.6 nM	9 nM
